Results: paper PMC12120882

Target: SlbHLH95 (GST fusion) (Solanum lycopersicum, UniProt A0A3Q7IJR5 1-380)
Assay: EMSA

B1: SlCHS1 promoter E-box probe 2 (dsDNA)
DNA 1: CTAAAAAAGTTGCTCAAACACGTGAAGACTAGCTACCGCCTA
DNA 2: TAGGCGGTAGCTAGTCTTCACGTGTTTGAGCAACTTTTTTAG
binding result: no binding

B2: SlCHS1 promoter E-box probe 3 (dsDNA)
DNA 1: TTTATACAGTTCTCTGCCCAAGTGTCTTTCTCTTTCTTGTTT
DNA 2: AAACAAGAAAGAGAAAGACACTTGGGCAGAGAACTGTATAAA
binding result: no binding

B3: SlFLS promoter E-box probe 2 (dsDNA)
DNA 1: ATTATACATACAAAATATCAATTGCAAGCTCTGATTTTATGT
DNA 2: ACATAAAATCAGAGCTTGCAATTGATATTTTGTATGTATAAT
binding result: binds

B4: SlCHS1 promoter E-box probe 1 (dsDNA)
DNA 1: AAGCCATTTTCTCTTCTTCACTTGCTAAAATTTGTATAATAT
DNA 2: ATATTATACAAATTTTAGCAAGTGAAGAAGAGAAAATGGCTT
binding result: no binding

B5: SlFLS promoter E-box probe 3 (dsDNA)
DNA 1: TAAAAAGCTGTTTATCAGCACTTGTTTGCCAAACACATCAAC
DNA 2: GTTGATGTGTTTGGCAAACAAGTGCTGATAAACAGCTTTTTA
binding result: no binding
